Data from patent US20200071424A1 (SHIONOGI, published 2020).
Where two headings read alike, the source gives them in different places.

T1: human [1-305]-mouse chimeric EL (human; mouse, UniProt Q9WVG5 306-500)
T1 sequence: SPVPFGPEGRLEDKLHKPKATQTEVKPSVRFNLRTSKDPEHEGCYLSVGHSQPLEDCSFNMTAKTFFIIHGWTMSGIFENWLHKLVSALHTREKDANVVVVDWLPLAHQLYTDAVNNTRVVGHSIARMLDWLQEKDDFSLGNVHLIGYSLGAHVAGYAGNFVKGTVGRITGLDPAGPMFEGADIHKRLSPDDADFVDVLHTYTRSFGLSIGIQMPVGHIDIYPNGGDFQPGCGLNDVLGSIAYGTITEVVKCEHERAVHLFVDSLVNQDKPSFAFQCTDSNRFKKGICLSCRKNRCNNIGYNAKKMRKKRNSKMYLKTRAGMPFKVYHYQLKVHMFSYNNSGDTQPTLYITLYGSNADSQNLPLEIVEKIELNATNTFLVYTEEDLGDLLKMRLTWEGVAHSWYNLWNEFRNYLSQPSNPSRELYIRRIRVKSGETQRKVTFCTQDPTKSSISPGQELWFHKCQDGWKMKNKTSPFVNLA

T2: mouse EL (mouse, UniProt Q9WVG5 21-500)
T2 construct: Heparin extract
T2 sequence (looked up): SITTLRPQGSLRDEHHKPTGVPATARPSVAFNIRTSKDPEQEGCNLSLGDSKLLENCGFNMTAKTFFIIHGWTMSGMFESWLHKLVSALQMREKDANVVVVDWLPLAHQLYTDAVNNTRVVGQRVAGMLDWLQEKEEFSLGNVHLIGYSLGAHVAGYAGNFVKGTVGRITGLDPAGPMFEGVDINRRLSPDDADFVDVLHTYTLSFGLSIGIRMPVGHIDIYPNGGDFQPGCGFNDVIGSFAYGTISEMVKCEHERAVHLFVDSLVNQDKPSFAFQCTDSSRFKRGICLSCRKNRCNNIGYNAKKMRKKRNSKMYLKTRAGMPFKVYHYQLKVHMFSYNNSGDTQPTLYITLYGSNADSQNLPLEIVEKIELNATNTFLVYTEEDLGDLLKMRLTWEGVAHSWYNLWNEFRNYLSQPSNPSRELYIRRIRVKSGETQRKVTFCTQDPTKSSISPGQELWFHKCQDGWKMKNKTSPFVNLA

T3: human [1-157]-mouse chimeric EL (human; mouse, UniProt Q9WVG5 158-500)
T3 construct: Heparin extract, detected by an anti-C2-tag antibody
T3 sequence: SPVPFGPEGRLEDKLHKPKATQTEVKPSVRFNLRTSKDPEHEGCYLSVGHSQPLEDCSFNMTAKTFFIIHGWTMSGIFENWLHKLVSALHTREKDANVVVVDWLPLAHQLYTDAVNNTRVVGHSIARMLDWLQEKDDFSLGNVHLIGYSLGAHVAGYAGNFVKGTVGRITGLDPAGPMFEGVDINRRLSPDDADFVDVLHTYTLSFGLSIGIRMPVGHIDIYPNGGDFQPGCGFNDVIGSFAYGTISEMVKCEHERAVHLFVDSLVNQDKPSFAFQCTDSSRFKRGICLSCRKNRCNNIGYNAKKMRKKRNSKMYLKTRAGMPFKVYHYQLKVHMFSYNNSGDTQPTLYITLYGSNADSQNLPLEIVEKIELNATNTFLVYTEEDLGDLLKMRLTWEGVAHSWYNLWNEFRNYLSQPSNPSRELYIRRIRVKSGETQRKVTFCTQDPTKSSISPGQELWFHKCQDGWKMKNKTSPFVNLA

B1: 23H8 (antibody, mouse IgG2a, V domains shown)
VH: EVQLQQSGPELLKPGASVKISCKASGYTFTDNTIHWVKQSHGKSLEWIGHINPYYGGTNNNEKFKDKATLTVDKSSSTAYMELRSLTSEDSAIYYCARKGIYYSSPFDYWGQGTTLTVSS
VL: DIQMTQTTSSLSASLGDRVTISCRASQDINNYLNWYQQKPDGTVKLLISYTSKLHSGVPSRFSGSGSGTDYSLTISNLEREDFATYFCQQGNTLPFTFGSGTNLEIK
notes: mouse IgG2a from hybridoma; also called 23H8 (mouse mAb)
B2: 13B3 (antibody, mouse IgG2a, V domains shown)
VH: EVQLQQSGPELLKPGASVKISCKASGYTFTEYTMHWVKQSHGKSLEWIGSINPYYGGTSYNEKFKDKATLTVDKSSNTAYMEFRSLTSEDCAVYYCARYGNYVGYFDYWGQGTTLTVSS
VL: ENVLTQSPAIMSASLGEKVTMSCRASSSVHYMYWYQQKSDASPKLWIYYTSNLAPGVPDRFSGSGSGNSYSLTISSMEGEDAATYYCQQFTSSPYTFGGGTKLEIK
notes: mouse IgG2a from hybridoma; also called 13B3 (mouse mAb)
B3: 53A11 (antibody, mouse IgG2a, V domains shown)
VH: EVQLQQSGPELLKPGASVKISCKASGYTFTDYTMHWVKQSHGKSLEWIGGINPYYGGTTYNEKFKDKATLTVDKSSSTAYMELRSLTSEDSAVYYCAKGDYYGGSYNYWGQGTTLTVSS
VL: DIVLTQSLATLSVTPGDSVSLSCRASQDISNSLHWYQQKSHESPRLLIKYASQSISGIPSRFSGSGSGTDFTLSINSVETEDFGMYFCQQSNSWPYTFGGGTKLEIK
notes: mouse IgG2a from hybridoma; also called 53A11 (mouse mAb)
B4: h16F6-S2 (antibody, V domains shown)
VH: QVQLVQSGAEVKKPGASVKVSCKASGYTFTTYWIAWVRQAPGQGLEWMGEILPGSAKTKYNKKFKGRVTMTRDTSTSTVYMELSSLRSEDTAVYYCAVYDYGADYWGQGTTVTVSS
VL: DIQMTQSPSSLSASVGDRVTITCKASQDVYTAVAWYQQKPGKSPKLLIYSASYRFTGVPSRFSGSGAGTDFTLTISSLQPEDFATYYCQQHYSIPRTFGGGTKVEIK
B5: h16F6-S3 (antibody, V domains shown)
VH: QVQLVQSGAEVKKPGASVKVSCKASGYTFTTYWIAWVRQAPGQGLEWMGEILPGSAKTKYNKKFKGRVTMTRDTSTSTVYMELSSLRSEDTAVYYCAVYDYGADYWGQGTTVTVSS
VL: DIQMTQSPSSLSASVGDRVTITCKASQDVYTAVAWYQQKPGKSPKLLIYSASYRFTGVPSRFTGSGAGTDFTLTISSLQPEDFATYYCQQHYSIPRTFGGGTKVEIK
B6: h16F6-S4 (antibody, V domains shown)
VH: QVQLVQSGAEVKKPGASVKVSCKASGYTFTTYWIAWVRQAPGQGLEWMGEILPGSAKTKYNKKFKGRVTMTRDTSTSTVYMELSSLRSEDTAVYYCAVYDYGADYWGQGTTVTVSS
VL: DIQMTQSPSSLSASVGDRVTITCKASQDVYTAVAWYQQKPGKSPKLLIYSASYRFTGVPSRFTGSGAGTDFTFTISSLQPEDFATYYCQQHYSIPRTFGGGTKVEIK
B7: h16F6-S5 (antibody, V domains shown)
VH: QVQLVQSGAEVKKPGASVKVSCKASGYTFTTYWIAWVRQAPGQGLEWMGEILPGSAKTKYNKKFKGRVTMTRDTSTSTVYMELSSLRSEDTAVYYCAVYDYGADYWGQGTTVTVSS
VL: DIQMTQSPSSLSASVGDRVSITCKASQDVYTAVAWYQQKPGKSPKLLIYSASYRFTGVPSRFTGSGAGTDFTFTISSLQPEDFATYYCQQHYSIPRTFGGGTKVEIK

How the values were obtained:
[1] = molecular target: baboon EL (baboon); assay: cell-based or functional assay
[2] = molecular target: cynomolgus monkey EL (cynomolgus monkey); assay: cell-based or functional assay
[3] = molecular target: rabbit EL (rabbit); assay: cell-based or functional assay
[4] = molecular target: human-mouse chimeric EL (construct not specified); assay: cell-based or functional assay
[5] = molecular target: T1, human [1-305]-mouse chimeric EL; assay: cell-based or functional assay
[6] = molecular target: cynomolgus monkey EL (cynomolgus monkey); assay: cell-based or functional assay; remark: listed apart in the source
[7] = molecular target: T4, baboon EL (baboon); assay: Biacore; EL captured by anti-C2-tag Ab; bivalent fit
T4 construct: Heparin extract
Method: (§1) The binding affinities of anti-EL antibodies were measured using Biacore. […] Then, anti-EL antibodies were added and the binding affinities were calculated by bivalent fitting of BIAevaluation software.

[8] = molecular target: T5, cynomolgus monkey EL (cynomolgus monkey); assay: as above
T5 construct: Heparin extract; also called cynomolgus EL; Cynomolgus EL
Method: as §1

[9] = molecular target: T1, human [1-305]-mouse chimeric EL; assay: as above
Method: as §1

[10] = molecular target: T4, baboon EL; assay: ELISA: antibody captured on anti-mouse IgG-Fc plate, EL heparin extract added, detection with biotin anti-C2-tag antibody and HRP-streptavidin, A450
Method: (§2) Assay buffer containing 15 μl of anti-EL antibody was added to anti-mouse IgG-Fc antibody-immobilized microtiter plate, and incubated for 2 hr. […] After washing the wells three times with 90 μL of washing buffer, 15 μl of assay buffer containing biotin-labeled anti-C2-tag antibody and HRP-labeled Streptavidin were added to the wells and incubated at room temperature for 1 hr. After washing the wells three times with 90 μL of washing buffer, 15 μL of TMB+—Substrate—Chromogen (DAKO) was added and incubated at room temperature for 30 min and then 15 μL of 0.05 M H2SO₄ was added and absorbance at 450 nm was measured (FIG. 3A to 3K).

[11] = molecular target: T5, cynomolgus monkey EL; assay: as above
Method: as §2

[12] = molecular target: T2, mouse EL; assay: as above
Method: as §2

[13] = molecular target: T3, human [1-157]-mouse chimeric EL; assay: as above
Method: as §2

[14] = molecular target: T4, baboon EL; assay: cell-based or functional assay; remark: listed apart in the source
[15] = molecular target: T2, mouse EL; assay: cell-based or functional assay

Binder | Neutralizing activity IC50 [1] [nM] | Neutralizing activity IC50 [2] [nM] | Neutralizing activity IC50 [4] [nM] | Neutralizing activity IC50 [5] [nM] | Neutralizing activity IC50 [6] [nM] | Kd [7] [nM] | koff [7] [s⁻¹] | kon [7] [M⁻¹ s⁻¹] | Kd [8] [nM] | koff [8] [s⁻¹] | kon [8] [M⁻¹ s⁻¹] | Kd [9] [nM] | koff [9] [s⁻¹] | kon [9] [M⁻¹ s⁻¹] | EC50 (read off the curve) [10] [ng/mL] | EC50 (read off the curve) [11] [ng/mL] | binding result [12] | EC50 (read off the curve) [13] [ng/mL] | Neutralizing activity IC50 [14] [nM] | Neutralizing activity IC50 [15] [nM] | further results
B1 | 3.2 | 2.7 | 1.7 | 1.7 | 1.4 | 2.9 | 0.00044 | 150000 | 6.1 | 0.00075 | 120000 | 0.87 | 0.00011 | 120000 | ~20 | ~8 | no binding (tested: about 330 ng/mL) | ~4 |  |  | Neutralizing activity IC50 [3]: 67 nM
B2 | 2.6 | 1.7 | 4.1 | 4.1 | 3.1 | 5.1 | 0.00031 | 61000 | 8.7 | 0.00041 | 47000 | 0.91 | 0.00014 | 150000 | ~20 | ~10 | no binding (tested: about 330 ng/mL) | ~4 |  |  | Neutralizing activity IC50 [3]: 13 nM
B3 | 2.4 | 1.9 | 2.3 | 2.6 | 2.7 | 1.6 | 0.00026 | 170000 | 4.2 | 0.00038 | 91000 | 0.63 | 0.00011 | 180000 | ~20 | ~10 | no binding (tested: about 330 ng/mL) | ~6 |  |  | 
B4 |  |  |  |  |  |  |  |  |  |  |  |  |  |  |  |  |  |  | 3.3 | 3 | 
B5 |  |  |  |  |  |  |  |  |  |  |  |  |  |  |  |  |  |  | 3.1 | 3.3 | 
B6 |  |  |  |  |  |  |  |  |  |  |  |  |  |  |  |  |  |  | 2.6 | 2 | 
B7 |  |  |  |  |  |  |  |  |  |  |  |  |  |  |  |  |  |  | 2 | 2.1 | 
